# Patent US20080207594A1, “Use of Gsk-3 Inhibitors for Preventing and Treating Pancreatic Autoimmune Disorders” (Davelogen Aktiengesellschaft, priority 2005, published 2008)
# How the values were obtained:
# Type in all cases: cell-based, rat
# Pax4 = Pax4 transcription in INS-1E insulinoma cells, quantitative RT-PCR; settings: INS-1E cells
# Text: The response of the Pax4 gene to test compounds was investigated in the rat insulinoma cell line INS-1E. INS-1E cells are known to express Pax4 and to upregulate Pax4 levels in response to the treatment with activin-A and betacellulin. In the search for novel beta cell mitogens and/or beta cell protective agents the inventors treated INS-1E cells with different test compounds.
# (§1) Total RNA from 8×10^4 cells growing on 4 cm^2 surface area of a tissue culture dish was extracted using Qiagen RNAeasy kit according to the instructions of the manufacturer (Qiagen) and 2 μg was converted into cDNA. Primers for pax4, 18S RNA, and rat RNA polymerase II largest subunit (RPB1) were designed using the Primer Express 1.5 Software from Applied Biosystems and sequences can be obtained upon request. Quantitative real-time PCR was performed using Applied Biosystems SDS 7000 detection system. Amplifications from 2 independent experiments were performed in duplicate for each transcript and mean values were normalized to the mean value of the reference RNA 18S RNA.
# (§2) Cells were seeded at a density of 2×10^4 cells per cm^2 6 to 8 days before the treatment with chemicals. During the growth period the medium was changed once. The cells were incubated for different periods of time with chemicals under serum-free conditions. The cells were harvested in Qiagen RNAeasy cell lysate buffer and immediately transferred to dry ice. The samples were stored at −20° C. until RNA isolation was carried out.
# as §2, with “RNA easy” for “RNAeasy”, “−20 degree” for “−20° C.”
# [1] = test system: RNA polymerase II largest subunit (RPB1); experiment: Expression of unrelated gene RPB1 in INS-1E cells, quantitative RT-PCR
# Text: The response of the Pax4 gene to mitogens was investigated in the rat insulinoma cell line INS-1E. INS-1E cells are known to express Pax4 and to upregulate Pax4 levels in response to the treatment with activin-A and betacellulin (Ueda (2000), supra, Li et al. (2004) supra, Brun et al. (2004), supra). In the search for novel beta-cell mitogens the inventors treated INS-1E cells with proteins related to activin A or betacellulin. […] The Pax4 RNA expression level was normalized to this of 18S RNA. The level of the unrelated gene RNA polymerase II largest subunit (RPB1) was unaffected by activin B treatment.
# as §1
# INS-1E cells were cultured as described (Merglen, (2004) Endocrinology; 145: 667-678). […]
# human Pax4 promoter [2] = experiment: Pax4 reporter gene assay in INS-1-cl.-3.5 cells; settings: INS-1-cl.-3.5 or INS-1-cl.-9 cells; FIG. 18, FIG. 19
# Procedure: (§3) INS-1E cell lines were grown as described below. The Pax-4-reporter gene construct (referred to as pKS-Pax-4-LUC), a cDNA construct containing a firefly luciferase reporter (LUC) gene under the transcriptional control of human Pax4 promoter sequences and the nearly complete human Pax4 gene locus (cf. FIG. 5A) was cloned into the plasmid pBluescript ks.
# (§4) Adherent INS-1E cells were transfected using Lipofectamine 2000 (Invitrogen) according to the protocol provided by the supplier. The transfected cells were treated with media containing 400 μg/ml G418 Sulfate (e.g. Geneticin from Gibco; Cat. No. 11811-098), a selection agent for eukaryotic cells, 24 to 48 hours after the transfection. To establish independent stable cell lines, cell colonies which occurred 2 to 6 weeks after the transfection were individually transferred to new culture dishes and then propagated like untransfected INS-1E cells, but in the presence of G418 Sulfate.
# (§5) For the identification and/or characterization of beta-cell mitogens a Pax4 reporter gene assay has been established. […]
# (§6) Luciferase activity that can be quantified using appropriate imaging systems reflects the activation status of the human Pax4 promoter. […]
# human Pax4 promoter [3] = experiment: Pax4 reporter gene assay in INS-1-cl-1.5 cells
# Procedure: as §3, §4, §5, §6
Molecule,increase in Pax4 levels (maximal Pax4 induction) (Pax4; 1 nM) [fold],stimulation of Pax4 transcription relative to activin A (in words) (Pax4; FIG. 16),level of RNA polymerase II largest subunit (RPB1) [1],Pax4 reporter response of clone (in words) (human Pax4 promoter [2]),Pax4 reporter response of clone (in words) (human Pax4 promoter [3])
"activin B: protein related to activin A (protein, UniProt P09529 293-407, looked up, Inhibin beta B chain) Inhibin beta B chain: GLECDGRTNLCCRQQFFIDFRLIGWNDWIIAPTGYYGNYCEGSCPAYLAGVPGSASSFHTAVVNQYRMRGLNPGTVNSCCIPTKLSTMSMLYFDDEYNIVKRDVPNMIVEECGCA",~7.5,almost equally potent in stimulating Pax4 transcription as activin A,unaffected,,
"Activin: Activin; figures 18 and 19 name activin-A (protein, UniProt P08476 311-426, looked up, Inhibin beta A chain) Inhibin beta A chain: GLECDGKVNICCKKQFFVSFKDIGWNDWIIAPSGYHANYCEGECPSHIAGTSGSSLSFHSTVINHYRMRGHSPFANLKSCCVPTKLRPMSMLYYDDGQNIIKKDIQNMIVEECGCS",,,,react to Activin treatment,does not react to Activin stimulation
